For assay [1], the target named is HBc protein (core protein) of hepatitis B virus genotype D (hepatitis B virus genotype D). The experiment in a line: reassociation by dialysis, tested by electron microscopy, DLS, SDS-PAGE and NAGE; purified HBc dimers dialysed from dissociation buffer against PBS at +4 °C overnight; dimers to VLPs (empty capsids).
The target is the same in assay [2]. Description: SEC; VLPs incubated in GuHCl- and LiCl-containing dissociation buffer, +4 °C, 16 h; debris removed; supernatant on a Superose6 or Superdex200 column in dissociation buffer; capsid to dimers, the dimer stays. (Size exclusion chromatography separates by hydrodynamic size, large species first.)
The target in assay [3] is HBc protein (core protein) of hepatitis B virus genotype F (hepatitis B virus genotype F). The experiment in a line: reassociation by dialysis, tested by electron microscopy, DLS, SDS-PAGE and NAGE; purified HBc dimers dialysed from dissociation buffer against PBS at +4 °C overnight; dimers to VLPs (empty capsids).
The target is the same in assay [4]. Description: SEC; VLPs incubated in GuHCl- and LiCl-containing dissociation buffer, +4 °C, 16 h; debris removed; supernatant on a Superose6 or Superdex200 column in dissociation buffer; capsid to dimers, the dimer stays.
The target in assay [5] is HBc protein (core protein) of hepatitis B virus genotype G (hepatitis B virus genotype G). The experiment in a line: reassociation by dialysis, tested by electron microscopy, DLS, SDS-PAGE and NAGE; purified HBc dimers dialysed from dissociation buffer against PBS at +4 °C overnight; dimers to VLPs (empty capsids).
Assay [6] shares this target. Description: SEC; VLPs incubated in GuHCl- and LiCl-containing dissociation buffer, +4 °C, 16 h; debris removed; supernatant on a Superose6 or Superdex200 column in dissociation buffer; capsid to dimers, the dimer stays.

“HBc protein (core protein) of hepatitis B virus genotype D (natural protein)” yielded a Reassociated dimers (percent of dimers reassociated in VLPs) in assay [1] of 80%. In assay [2], the Dimer content came to 30%; the percent of the treated soluble VLPs as dimers came out at 70%; the stoichiometry N (in general, the number of molecules, sites or subunits per partner or assembly) stood at 2.

Regarding “HBc protein (core protein) of hepatitis B virus genotype F (natural protein)”, the Reassociated dimers (percent of dimers reassociated in VLPs) in assay [3] amounted to 80%. In assay [4], the Dimer content was found to be 30%, the percent of the treated soluble VLPs as dimers was 40% and the stoichiometry N is 2.

In assay [5], “HBc protein (core protein) of hepatitis B virus genotype G (natural protein)” returned a Reassociated dimers (percent of dimers reassociated in VLPs) of 90%. In assay [6], this substance showed a Dimer content of 30%, a percent of the treated soluble VLPs as dimers of 80% and a stoichiometry N of 2.

The values are drawn from article PMC7912224.
